Data from publication PMC7251095.

Target: E. coli F1Fo ATP synthase subunit b (cysteine free) (E. coli) (UniProt P0ABA0)
Assay: cryo-EM structure; detergent-solubilized (digitonin) cysteine free E. coli F1Fo ATP synthase at 11 μM with 10 mM MgADP, 22 °C for 30 s before freezing; 300 kV; nine sub-states and a Fo focused map of Sub-state 3A

stoichiometry N: 2
Substance: E. coli F1Fo ATP synthase subunit b (cysteine free) (from UniProt P0ABA0 1-156) (natural protein)
